Values of other authors, collected in paper PMC12298957.

Molecular target: FGFR2 (Homo sapiens) (UniProt P21802)
Sequence of UniProt P21802 (P21802 22-377): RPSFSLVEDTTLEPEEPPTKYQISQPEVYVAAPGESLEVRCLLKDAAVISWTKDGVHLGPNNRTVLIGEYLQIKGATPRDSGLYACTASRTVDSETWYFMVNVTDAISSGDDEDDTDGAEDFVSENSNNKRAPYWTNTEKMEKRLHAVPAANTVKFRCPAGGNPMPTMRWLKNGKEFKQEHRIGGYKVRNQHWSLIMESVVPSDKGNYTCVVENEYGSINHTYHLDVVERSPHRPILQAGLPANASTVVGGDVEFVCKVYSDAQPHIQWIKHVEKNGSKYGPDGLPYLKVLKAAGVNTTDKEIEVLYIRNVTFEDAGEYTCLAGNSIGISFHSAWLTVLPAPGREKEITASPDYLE

Question: Which Kd does the source give for WRARVPL peptide here?
Answer: The Kd was 1400 nM.
